Tested on: K4 kissing-loop RNA reporter
Assay: apparent KD of K4 kissing-loop reporter; higher = weaker reporter binding
Conditions: Eterna round: R107
Description: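 RNA-MaP round R107: designed RNA switches with theophylline, tryptophan, arginine or FMN aptamers are transcribed on-chip within common flanks. They are titrated with a labelled K4 kissing-loop RNA reporter in RNA-MaP buffer (100 mM Tris pH 7.5, 80 mM KCl, 4 mM MgCl2), without ligand or with the indicated ligand. Median apparent KD per design.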

[1] = input ligand: theophylline 20 uM
[2] = input ligand: tryptophan 2.4 mM
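Note: bound reporter read as fluorescence of individual clusters on recovered sequencing chips by microscopy, with normalized cluster intensities fitted with a binding model.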

Row | Sequence | apparent KD of K4 kissing-loop reporter (input ligand: FMN 200 uM) | apparent KD of K4 kissing-loop reporter (input ligand: arginine 13.2 mM) | apparent KD of K4 kissing-loop reporter (input ligand: none) | apparent KD of K4 kissing-loop reporter [1] | apparent KD of K4 kissing-loop reporter [2]
1 | AGUUAUGUAUCAGGAUAUUAGUGAUGUUUGUUUUUGUUAGUGAUGUUGAUAUUUGUUUUAUGUAUUUAAGAAGGGAUUGAGAUGU [qsszmullin] | 68.2 nM | 20.5 nM | 39.1 nM | 29.4 nM | 52.4 nM
2 | AGAGUACGAAAGUACUCCUCUACACACUGUCGAGGACCGGUACGGCCGCCACUCGAGUUGAGUGAUGUUCGAUAGUGUGUAGAGA [Omei KL Tryp A SS C v4] | 66.4 nM | 57.3 nM | 30 nM | 104 nM | 142 nM
3 | UCGCCAAAGUCGGCCGCCACUCCGGGCCCUAUAAAUGGGCGCAGUGAUGUUGCGGCUAGGCCUCUGAGGACCGGGACUUUGUAAA [Tiesgeza] | 119 nM | 85.2 nM | 68.9 nM | 32.5 nM | 133 nM
4 | AUUUAAUGUAUAGAUUAUAUACAUUAUUCAGAGGAUAUGCUUUGAAGCAGAAGGCUGGAUGUAGUGAUGUUGCAAUUUUAAUUUA [JR_SSFMNA_Sub006] | 214 nM | 265 nM | 236 nM | 250 nM | 163 nM
5 | GCCAGAGCGCGAAGGAGCGCCCUGACAGGUUGCUGCCGUGGGCAGUGAUGUUGCUCAGUCCGGCAGGUAGGUCGCGUGCUCUGGC | 222 nM | 165 nM | 193 nM | 196 nM | 174 nM
6 | GGUAGCAUGGCGGCCGCCACUAUUACUGGAUCGGAAACGAUCCAGUAUUUAUGAGUGAUGUUCAUUAGGACCGGGCCAUGCUACC | 342 nM | 301 nM | 304 nM | 305 nM | 208 nM
7 | CUUAGGAGUGGUGUUGAUUAGGGAGCGGAAGGAGCGCCAAUGAUGGCAGGUAGGUCGCCGGAAUAUAGUGAUGUUAUAUAGAGGG [ExArgA.Q] | 273 nM | 252 nM | 592 nM | 290 nM | 222 nM
8 | UAGAAGAGAAGCGAUACCAGCGAAUGAAGAAGAUGAUGAAGCCAGUGAUGUUGGAAAGAACGCCCUUGGCAGCGCAAGAGAAGAU | 119 nM | 163 nM | 107 nM | 175 nM | 83.2 nM
9 | AGACUACCACACUGUCAAUAGACAGUGAGCUAGGAUAUGCUGAUAAGCAGAAGGAGUGAUGUUCCUGGGUAGUCAAUAAAAUAAU [FmnAX 13 G29+G67] | 399 nM | 349 nM | 362 nM | 441 nM | 342 nM
10 | UUGUAUACUUUUGUGUGCGAUGUGUAGCCGCGAGGACCGGUACGGCCGCCACUCGCUGAGAGUGAUGUUCUCUGGGCUAUAUAUC [Skye_SS_TA3] | 1100 nM | 924 nM | 1700 nM | 794 nM | 234 nM
11 | UUAGAUCUUCUAGAUACCAGUCUGUGUAUCAAUGAUACACUUGACUGAGUGAUGUUCAGAGGCCCUUGGCAGCUAGAAGAUCAUU [AK1 SS Theophylline B] | 761 nM | 473 nM | 727 nM | 849 nM | 490 nM
12 | GUAGCACUUGACAGUGAUGUUGUCAAGGGCAAGGAUAUCACCUCAGUGAGAAGGUGUCCUUGAUAACUGCUACGGGAAUAUCCCA [Omei KL FMN A Exc D v7] | 603 nM | 136 nM | 152 nM | 156 nM | 168 nM
13 | CCUUCUCAUUUCCGUUAUCAUUGCCUUAGGAAGGAUAUCAUUAUUUUGAGAAGGUCCGUGGUCUAUUUUCCGAGUGAUGUUUGGU [theeternabot_exclusion_KL_FMN_A_45] | 273 nM | 226 nM | 311 nM | 277 nM | 248 nM
14 | CGCCGGAAGGCGAGCGCUCCCACUCCGGAAGGAGCGCCCGGAAGGGCAGGUAGGUCGCCGGAGUGAUGUUCCGGUGGAGGGCUCG [#2 Exclusion - Arginine A Attempt #11 (Inspired by Omei)] | 171 nM | 58 nM | 164 nM | 99.3 nM | 99.9 nM
15 | AAGCAGUCACUCGAAAUCAUCAAAGAUGAACGAGGACCGGUACGGCCGCCACUCGGAGUGAUGUUCCGAAGACUGCAAAAUAAAA [MatMod 2 - Jieux - Exclusion - Tryptophan A] | 307 nM | 225 nM | 243 nM | 274 nM | 112 nM
16 | AGACUACCACACUGUCAAUAGACAGUGAACUAGGAUAUGCUGAUAAGCAGAAGGAGUGAUGUUCCUAAAGGUAGUCAAAUAUAAU [FmnAX 14 #SwitchBubble #StaticStem #K4Early] | 335 nM | 380 nM | 380 nM | 567 nM | 351 nM
17 | GGAUGGUAGGCGGCCGCCACUAAAACUGAACACAUACAAGCCAGUGAUGUUGGUAUGAUGGAGUAUAGGACCGGGCCUAGAUAGA [Exclusion - Tryptophan B (Freestyle 4)] | 452 nM | 367 nM | 472 nM | 420 nM | 421 nM
18 | AAUUAAUACAGAAGGAGCGUGAAAUUAUCUACUUUUAACUUAGCGAGUGAUGUUCGUUUUUCACAGGUAGGUCGCUGUAUAUUUA [JR_ExcArginiB_Sub009] | 167 nM | 214 nM | 194 nM | 192 nM | 152 nM
19 | GGUAGCAUGGCGGCCGCCACUUUAUACUCGGUCGUUGGCGUCGUAAGUGAUGUUUACAUUCGCAAAAGGACCGGGCCAUGCUACC | 97.8 nM | 56.6 nM | 81.2 nM | 123 nM | 133 nM
20 | UUUAACGAGUGAUGUUCGAAAAGUAAUAGUUAGGAUAUCGUUUUUUCGAGAAGGAACUUCGAAGUGAUACGAAAGUAUCGCUUCG [FMN A 1] | 180 nM | 359 nM | 287 nM | 351 nM | 181 nM
21 | AGGCACGAGCAAGGAUAUCGAGUAGAGUGAUGUUCUGCCUGGGUUGGCUCGGAAGGGCCUUCCCAGCGAGAAGGUGCUCGUGCCU [#2 Same State - FMN A Attempt #16 (HarryS)] | 189 nM | 637 nM | 590 nM | 674 nM | 493 nM
22 | GGACGCCGGUCGGCCGCCACUCACAGCAGCCAGUGAUGUUGGAUUGUAGCGGAGUGAUGUUCCGAGAGGACCGGGACUGCAGUCU [Same State Tryptophan B GF 11] | 161 nM | 135 nM | 153 nM | 114 nM | 137 nM

Row | Sequence | apparent KD of K4 kissing-loop reporter (input ligand: FMN 200 uM) | apparent KD of K4 kissing-loop reporter (input ligand: arginine 13.2 mM) | apparent KD of K4 kissing-loop reporter (input ligand: none) | apparent KD of K4 kissing-loop reporter [1] | apparent KD of K4 kissing-loop reporter [2]
23 | GUCUGCUGUAUCGAUACCAGAAGUGGGCAGUGAUGUUGUUCGGGUACAUCGCGUCUCGAGUUCCCUUGGCAGCGAUUGUACGAAU [theeternabot_exclusion_KL_Theo_B_12] | 533 nM | 571 nM | 694 nM | 835 nM | 524 nM
24 | GGCUCCUACGCAGGAUAUAGUAGCCGAGAGUGAUGUUCUACGGCGUUUGCCGAUUUAGUCACAGAUCUAGAAGGGUGUAGGAGCC [XFMN-B PiClone] | 1040 nM | 660 nM | 1130 nM | 756 nM | 1000 nM
25 | UAGGGCAUCGCAGGAUAUCCUGCUUAACGUUGGAUUCCAGUGAUGUUGGAAAGUCGGCCUAGGGUAGGAGAAGGGCGAACUUGAA [Maxean] | 172 nM | 157 nM | 194 nM | 195 nM | 98.1 nM
26 | CGCAGUGAUGUUGCGAGUUUGAUCAGGGAAGGAGCGGCUCAGAAGCCAGGUAGGUCGCCCACGCAGUGAUGUUGUGUAUUCGGGU [Exclusion Arginine A GF 1] | 96.9 nM | 88.1 nM | 87.9 nM | 89.1 nM | 79.3 nM
27 | UGAUACCAGACGGCCGCCACUGCGCCAGUCAAUGACUGAGCGCGGUGGCGCUCAGUGAUGUUGUGCAGGACCGGGUCUGGUAUCU [Mod of Eli's TrypBX 8 v6] | 476 nM | 383 nM | 410 nM | 364 nM | 398 nM
28 | AUUUAAUGUAUAGAUUAUAUACAUAAUUCAGAGGAUAUGCGAAGAAGCAGAAGGCUGGUUGCAGUGAUGUUGCUUUUAUAAUUUA [JR_SSFMNA_Sub009] | 32.8 nM | 152 nM | 85.9 nM | 171 nM | 59.9 nM
29 | ACACUAUCGUCAUAGACGGUAGUGAAAUCACAGGAUAUAAGUGAUGUUAGAAGGGUGAAAGACUGUAUCGAAUAGAUACAGUCAA [FmnA 3 #K4BetweenAptamer #OpenEnded] | 1140 nM | 605 nM | 913 nM | 861 nM | 878 nM
30 | UAUUAAUUGUCAGGAUAUCGUAUUCGAGUGAUGUUCGUAUAUCGACGAUAGUCGAUUCUAUCUAUACGAGAAGGGACAUUAUUUA [JR_SSFMNB_Sub007] | 801 nM | 711 nM | 1090 nM | 804 nM | 755 nM
31 | UGUGCCAAAUGUGAUACCAGCAUCCUGCAGUGAUGUUGCAUACGAGUGAUGUUCGUCCGAUGCCCUUGGCAGCGCAGUAGUUUGA [Same State Theophylline B GF 26] | 264 nM | 263 nM | 307 nM | 326 nM | 239 nM
32 | GGAUCUUCCAGUGAUGUUGGUUAAUAUAUCAAGGAUAUGACGAAAGUCAGAAGGUGAAAGACUGGACAAAGUCCAGUCGGAUCCA [KL-SSFMN-A19] | 444 nM | 573 nM | 599 nM | 444 nM | 430 nM
33 | GGAGGAGAAUAUGAUACCAGCAGAGAGAGAGAGGAAGUAUAGUGAUGUUAUAUGAGAGAAUGCCCUUGGCAGCAUAAGACGCAGG [#07 K4 Theophylline B Same State] | 194 nM | 114 nM | 110 nM | 144 nM | 94.7 nM
34 | GAGAUGCACCAGUCUUAACGUGACUUAUCCCGAGGACCGGUACGGCCGCCACUCGCGUACUACUAGUGAUGUUGGUCAGUAUGAG [theeternabot_sameState_KL_Trp_A_26] | 244 nM | 185 nM | 215 nM | 223 nM | 235 nM
35 | UGUCAUUGGUCUGAUACCAGUUAGCGCGAUAAGCGCAAAACUGGAGUGAUGUUCCCAAAUAACCCUUGGCAGCAGACCGAUGACU [MAT - Same State Theophlline B - Mod of Eli - D13] | 337 nM | 155 nM | 235 nM | 189 nM | 176 nM
36 | AAUUUAGUGACGGCCGCCACUAGGGUGAUUUAUUUGUUUGAGUGAUGUUUUGAUGUUUGAUUUUGUAGGACCGGGUUAGGUGAUG [dddcmullin] | 354 nM | 304 nM | 363 nM | 326 nM | 271 nM
37 | CCAGGACGAUGAGGAUGAUGAAUUACUGAAGGAGCGCAUAUGGUUGCAGGUAGGUCGCGGUGAACAAGUAUAGUGAUGUUAUACC [SSArgA.U] | 327 nM | 282 nM | 340 nM | 515 nM | 348 nM
38 | UAUUAAUUGUCAGGAUAUCGUAUUCGAGUGAUGUUCGUAUAUCGACGAUAGUCGAUAUUAUCUAUACGAGAAGGGACAUUAUUUA [JR_SSFMNB_Sub006] | 418 nM | 334 nM | 477 nM | 341 nM | 379 nM
39 | UUUCGCUUCGUCUGAUAUAAUUGGCCAGAAGGAGCGGUAGAAUUACCAGGUAGGUCGCUGGCCCAGUGAUGUUGGGACUAGCGUG [Isrianve] | 118 nM | 103 nM | 104 nM | 107 nM | 94.1 nM
40 | UCCUGCAAUCGACCACGAAAGUGGAUCGAUACCAGAGUCGAAAGACUCCCUUGGCAGCGAGUGAUGUUCGAGCAGGUAAAAUAAA [#SwitchBubble 23 #K4Late] | 713 nM | 461 nM | 446 nM | 406 nM | 486 nM
41 | AAGGCACGGCUUCGGCCGUGCCAAAUAGAUACCAGCAUAAUAAUAUGCCCUUGGCAGCUAAAUAGAAAUUCAGUGAUGUUGGAUA [SS Theo A Tesla 2.1] | 597 nM | 444 nM | 601 nM | 586 nM | 649 nM
42 | AAGUGAUGUUGUAGUGAUGUUGUGAUGUUGCAGGAUAUAUAGUGAUGUAGAAGGGUAUGUACAGUUUUUUUUUUUGAGUGAUGAU [vvcvmullin] | 82.3 nM | 40.1 nM | 74.2 nM | 51.4 nM | 70.3 nM
43 | GUCCCGAGUGAUGUUCGGGUCGUUCGGGAAGGAGCGCCCGCAAGGGCAGGUAGGUCGCCCGGAUCUCUCAGGUAACUGAGAGACC [#2 Same State - Arginine A Attempt #28 (HarryS)] | 553 nM | 319 nM | 431 nM | 408 nM | 416 nM
